1 molecule from article PMC6445127, “WNT5A is transported via lipoprotein particles in the cerebrospinal fluid to regulate hindbrain morphogenesis” (Nature Communications, 2019) can be followed below.

For this test, the target named is T1, human native APOJ (human, UniProt P10909 23-227; P10909 228-449).
T1 construct: Apolipoprotein J (Clusterin), human, native; also called isolated APOJ protein; Clusterin; source: bought: Biovendor (RD162034025)
Kind of test: co-IP; in vitro protein binding assay: 2 μg human native APOJ incubated with 150 ng recombinant WNT5A in 200 μl binding buffer (50 mM Tris pH 7.6, 100 mM NaCl, 1 mM EDTA) overnight at 4 °C; precipitated with corresponding antibody or IgG on DynaBeads; washes with 0.5% NP40. The settings on record: both partners purified.

T1 sequence (P10909 23-227, chain 1 of 2): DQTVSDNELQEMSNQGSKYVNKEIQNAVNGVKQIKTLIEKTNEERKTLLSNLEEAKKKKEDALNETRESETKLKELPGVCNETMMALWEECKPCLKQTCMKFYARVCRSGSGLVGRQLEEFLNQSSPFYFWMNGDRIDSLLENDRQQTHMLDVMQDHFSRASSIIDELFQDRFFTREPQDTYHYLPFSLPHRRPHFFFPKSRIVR
T1 sequence (P10909 228-449, chain 2 of 2): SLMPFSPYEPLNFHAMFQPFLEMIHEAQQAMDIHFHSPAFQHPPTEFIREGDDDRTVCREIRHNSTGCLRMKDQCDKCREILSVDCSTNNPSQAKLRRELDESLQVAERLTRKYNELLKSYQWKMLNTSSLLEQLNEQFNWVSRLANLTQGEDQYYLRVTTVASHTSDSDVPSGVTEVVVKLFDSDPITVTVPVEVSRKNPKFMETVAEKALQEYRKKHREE

B1: recombinant WNT5A (ligand, UniProt P22725 62-380, looked up)
chain: IIGAQPLCSQLAGLSQGQKKLCHLYQDHMQYIGEGAKTGIKECQYQFRHRRWNCSTVDNTSVFGRVMQIGSRETAFTYAVSAAGVVNAMSRACREGELSTCGCSRAARPKDLPRDWLWGGCGDNIDYGYRFAKEFVDARERERIHAKGSYESARILMNLHNNEAGRRTVYNLADVACKCHGVSGSCSLKTCWLQLADFRKVGDALKEKYDSAAAMRLNSRGKLVQVNSRFNSPTTQDLVYIDPSPDYCVRNESTGSLGTQGRLCNKTSEGMDGCELMCCGRGYDQFKTVQTERCHCKFHWCCYVKCKKCTEIVDQFVCK
notes: recombinant WNT5A, R&D Systems; 'P22725' is printed where a catalogue number would stand; elsewhere the catalogue number 645-WN-010 is printed; WNT5A'; also called rcWNT5A; rcWnt5a; source: bought: R&D Systems
Take B1: the binding result is given as “binds”.
